The target in assay [1] is T1, human FLT3 protein (human, UniProt P36888 27-541, limits assumed).
T1 construct: protein coated in the screening ELISA; also called ELISA FLT3
Kind of assay: colorimetric ELISA, periplasmic extract. The text has this: (§1) Llamas were immunized with purified FLT3 protein expressed in Expi293 cells. A phage display library for expression of heavy variable antibody domains was constructed from circulating B cells isolated from the immunized llamas (See van der Linden, de Geus, Stok, Bos, van Wassenaar, Verrips, and Frenken. 2000. J Immunol Methods 240:185-195). Phage clones were screened for binding to FLT3 by expressing llama anti-FLT3 proteins in E. coli, preparing periplasmic extracts, and performing colorimetric ELISAs.

The target in assay [2] is T1, human FLT3 protein. Kind of assay: colorimetric ELISA, signal over control wells lacking FLT3.
Description: as §1

Assay [3] deals with T2, anti-FLT3/anti-albumin/anti-CD3 multispecific protein containing humanized FLH107.
T2 construct: trispecific single-chain fusion with His6; purified from CHO conditioned medium
T2 sequence (chain, as listed by the source): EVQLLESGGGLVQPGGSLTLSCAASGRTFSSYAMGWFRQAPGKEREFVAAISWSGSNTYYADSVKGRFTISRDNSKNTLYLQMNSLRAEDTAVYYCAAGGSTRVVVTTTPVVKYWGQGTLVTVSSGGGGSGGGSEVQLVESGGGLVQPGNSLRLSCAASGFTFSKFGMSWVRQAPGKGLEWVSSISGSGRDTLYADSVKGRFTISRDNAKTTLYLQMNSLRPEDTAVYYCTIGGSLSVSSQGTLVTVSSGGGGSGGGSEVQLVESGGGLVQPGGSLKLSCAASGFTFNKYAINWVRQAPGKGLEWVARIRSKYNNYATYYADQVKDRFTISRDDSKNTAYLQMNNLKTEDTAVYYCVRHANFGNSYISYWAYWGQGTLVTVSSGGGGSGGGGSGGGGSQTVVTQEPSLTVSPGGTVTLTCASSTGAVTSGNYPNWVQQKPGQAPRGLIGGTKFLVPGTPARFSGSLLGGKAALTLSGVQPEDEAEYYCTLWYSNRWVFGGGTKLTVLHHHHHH
Kind of assay: BLI (Octet), biotinylated FLT3 on streptavidin tips. How it is done:
(§2) The affinities of the purified multispecific proteins for human and cynomolgus FLT3 were measured with an Octet instrument with streptavidin tips were loaded with biotinylated human or cynomolgus FLT3 protein. The tips were then incubated with solutions containing 50, 16.7, 5.6, or 1.9 nM of the multispecific protein. Affinities (KD), listed in Table 7, were calculated by measuring the on rate and off rate of binding of anti-FLT3/anti-albumin/anti-CD3 multispecific proteins to the captured biotinylated FLT3 proteins.

For assay [4], the target named is T3, anti-FLT3/anti-albumin/anti-CD3 multispecific protein containing humanized FLH141.
T3 construct: trispecific single-chain fusion with His6; purified from CHO conditioned medium
T3 sequence (chain, as listed by the source): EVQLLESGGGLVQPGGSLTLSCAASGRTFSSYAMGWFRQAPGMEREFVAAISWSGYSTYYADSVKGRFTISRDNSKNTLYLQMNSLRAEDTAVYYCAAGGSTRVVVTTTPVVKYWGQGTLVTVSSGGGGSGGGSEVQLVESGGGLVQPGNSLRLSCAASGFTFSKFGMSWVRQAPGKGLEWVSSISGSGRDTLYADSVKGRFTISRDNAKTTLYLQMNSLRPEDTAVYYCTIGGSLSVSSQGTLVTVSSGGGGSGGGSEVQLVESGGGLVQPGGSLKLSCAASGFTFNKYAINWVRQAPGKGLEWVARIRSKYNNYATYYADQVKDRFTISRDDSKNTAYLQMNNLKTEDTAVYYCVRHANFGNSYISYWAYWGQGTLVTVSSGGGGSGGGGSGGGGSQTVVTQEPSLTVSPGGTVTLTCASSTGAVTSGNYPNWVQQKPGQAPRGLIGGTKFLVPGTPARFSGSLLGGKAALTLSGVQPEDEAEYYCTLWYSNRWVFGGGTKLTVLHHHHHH
The assay is described as above. The procedure:
as §2

Assay [5] concerns the target T4, anti-FLT3/anti-albumin/anti-CD3 multispecific protein containing humanized FLH19C.
T4 construct: trispecific single-chain fusion with His6; purified from CHO conditioned medium
The assay is described as above. How it is done: as §2

Assay [6] addresses T5, anti-FLT3/anti-albumin/anti-CD3 multispecific protein containing humanized FLH34.
T5 construct: trispecific single-chain fusion with His6; purified from CHO conditioned medium
The assay is described as above. The procedure: as §2

Assay [7] addresses T6, anti-FLT3/anti-albumin/anti-CD3 multispecific protein containing humanized FLH4.
T6 construct: trispecific single-chain fusion with His6; purified from CHO conditioned medium
Described as above. The procedure: as §2

The target of assay [8] is T7, anti-FLT3/anti-albumin/anti-CD3 multispecific protein containing humanized FLH78.
T7 construct: trispecific single-chain fusion with His6; purified from CHO conditioned medium
T7 sequence (chain, as listed by the source): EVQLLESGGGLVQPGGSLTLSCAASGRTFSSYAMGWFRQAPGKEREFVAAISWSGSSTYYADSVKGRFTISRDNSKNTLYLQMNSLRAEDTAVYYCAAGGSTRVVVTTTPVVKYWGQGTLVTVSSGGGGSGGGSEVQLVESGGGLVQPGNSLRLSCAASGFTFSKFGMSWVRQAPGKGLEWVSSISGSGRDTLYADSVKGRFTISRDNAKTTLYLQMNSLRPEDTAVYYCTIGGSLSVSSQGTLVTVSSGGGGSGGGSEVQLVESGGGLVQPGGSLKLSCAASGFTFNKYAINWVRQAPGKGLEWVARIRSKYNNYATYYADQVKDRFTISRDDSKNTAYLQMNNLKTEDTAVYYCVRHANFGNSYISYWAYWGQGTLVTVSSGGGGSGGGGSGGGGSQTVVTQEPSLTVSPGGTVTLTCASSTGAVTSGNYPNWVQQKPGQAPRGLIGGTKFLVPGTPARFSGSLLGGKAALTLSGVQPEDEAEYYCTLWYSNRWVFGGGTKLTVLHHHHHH
Described as above. The procedure:
as §2

Assay [9] addresses T8, anti-FLT3/anti-albumin/anti-CD3 multispecific protein containing humanized FLH92a.
T8 construct: trispecific single-chain fusion with His6; purified from CHO conditioned medium
Described as above. How it is done:
as §2

The target of assay [10] is T9, anti-FLT3/anti-albumin/anti-CD3 multispecific protein containing humanized FLH92b.
T9 construct: trispecific single-chain fusion with His6; purified from CHO conditioned medium
T9 sequence (chain, as listed by the source): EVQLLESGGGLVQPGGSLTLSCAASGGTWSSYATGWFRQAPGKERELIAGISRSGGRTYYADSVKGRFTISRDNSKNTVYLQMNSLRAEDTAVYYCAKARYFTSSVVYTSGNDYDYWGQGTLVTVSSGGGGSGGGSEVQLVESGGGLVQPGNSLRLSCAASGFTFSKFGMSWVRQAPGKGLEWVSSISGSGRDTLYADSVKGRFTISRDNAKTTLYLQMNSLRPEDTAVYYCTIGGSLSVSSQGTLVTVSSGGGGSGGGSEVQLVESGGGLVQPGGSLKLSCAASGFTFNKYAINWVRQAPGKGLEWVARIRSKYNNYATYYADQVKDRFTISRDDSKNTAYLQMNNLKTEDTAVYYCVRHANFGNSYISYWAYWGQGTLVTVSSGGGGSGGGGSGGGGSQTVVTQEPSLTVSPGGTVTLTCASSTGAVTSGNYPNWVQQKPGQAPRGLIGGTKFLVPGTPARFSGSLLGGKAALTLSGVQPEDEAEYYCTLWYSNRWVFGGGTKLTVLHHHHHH
The assay is described as above. How it is done:
as §2

Assay [11] concerns the target T10, anti-FLT3/anti-albumin/anti-CD3 multispecific protein containing FLL8.
T10 construct: trispecific single-chain fusion with His6; Expi293 conditioned medium
In words: BLI (Octet), conditioned medium, single 50 nM concentration (relative affinity). How it is done: (§3) Additional affinity determinations were performed using conditioned media from Example 2 with known concentrations of anti-FLT3/anti-CD3 multispecific proteins. […] An Octet instrument with streptavidin tips were loaded with biotinylated human or cynomolgus FLT3 protein, and KD values for binding FLT3 were calculated by measuring the on rate and off rate of binding of anti-FLT3/anti-CD3 multispecific proteins to the biotinylated FLT3 proteins.

The target of assay [12] is T11, anti-FLT3/anti-albumin/anti-CD3 multispecific protein containing FLL41.
T11 construct: trispecific single-chain fusion with His6; Expi293 conditioned medium
T11 sequence (chain, as listed by the source): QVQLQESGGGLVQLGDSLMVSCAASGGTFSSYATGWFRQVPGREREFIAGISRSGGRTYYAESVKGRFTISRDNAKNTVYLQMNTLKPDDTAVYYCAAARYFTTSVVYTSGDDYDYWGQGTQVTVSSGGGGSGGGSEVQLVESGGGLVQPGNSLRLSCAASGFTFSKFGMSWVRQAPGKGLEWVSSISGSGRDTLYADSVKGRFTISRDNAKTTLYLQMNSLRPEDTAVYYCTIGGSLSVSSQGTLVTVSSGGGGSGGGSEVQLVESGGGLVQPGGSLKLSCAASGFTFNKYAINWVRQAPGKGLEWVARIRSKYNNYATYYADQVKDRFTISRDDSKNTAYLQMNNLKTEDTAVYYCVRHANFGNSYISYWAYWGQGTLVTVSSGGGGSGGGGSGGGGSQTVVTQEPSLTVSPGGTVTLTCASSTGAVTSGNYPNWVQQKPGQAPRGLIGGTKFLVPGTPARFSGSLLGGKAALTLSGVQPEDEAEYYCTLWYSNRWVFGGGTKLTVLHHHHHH
The description is as above. How it is done: as §3

The target in assay [13] is T12, anti-FLT3/anti-albumin/anti-CD3 multispecific protein containing FLL71.
T12 construct: trispecific single-chain fusion with His6; Expi293 conditioned medium
The assay is described as above. How it is done:
as §3

In assay [14] the target is T13, anti-FLT3/anti-albumin/anti-CD3 multispecific protein containing FLL92.
T13 construct: trispecific single-chain fusion with His6; Expi293 conditioned medium
The description is as above. The procedure: as §3

Assay [15] has as its target T14, anti-FLT3/anti-albumin/anti-CD3 multispecific protein containing FLL134.
T14 construct: trispecific single-chain fusion with His6; Expi293 conditioned medium
The assay is described as above. How it is done:
as §3

The target in assay [16] is T15, anti-FLT3/anti-albumin/anti-CD3 multispecific protein containing FLL153.
T15 construct: trispecific single-chain fusion with His6; Expi293 conditioned medium
Described as above. How it is done: as §3

In assay [17] the target is T4, anti-FLT3/anti-albumin/anti-CD3 …. Kind of assay: biolayer interferometry (data not shown).

Changes are numbered by the printed parent chain.

T4 sequence (chain, as listed by the source): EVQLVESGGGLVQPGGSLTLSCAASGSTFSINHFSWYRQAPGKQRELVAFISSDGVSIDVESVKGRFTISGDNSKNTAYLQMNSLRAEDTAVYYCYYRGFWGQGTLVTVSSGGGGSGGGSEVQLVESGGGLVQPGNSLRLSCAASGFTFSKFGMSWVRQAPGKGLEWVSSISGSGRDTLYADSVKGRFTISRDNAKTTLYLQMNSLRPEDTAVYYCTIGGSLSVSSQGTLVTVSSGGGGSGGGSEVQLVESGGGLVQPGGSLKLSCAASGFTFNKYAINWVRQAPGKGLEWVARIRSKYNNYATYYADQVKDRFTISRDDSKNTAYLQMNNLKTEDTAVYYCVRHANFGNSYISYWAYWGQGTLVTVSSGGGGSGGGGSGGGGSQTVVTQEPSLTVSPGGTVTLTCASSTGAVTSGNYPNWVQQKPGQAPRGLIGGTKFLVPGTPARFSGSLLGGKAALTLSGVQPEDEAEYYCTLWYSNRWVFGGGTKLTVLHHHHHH
T6 sequence (chain, as listed by the source): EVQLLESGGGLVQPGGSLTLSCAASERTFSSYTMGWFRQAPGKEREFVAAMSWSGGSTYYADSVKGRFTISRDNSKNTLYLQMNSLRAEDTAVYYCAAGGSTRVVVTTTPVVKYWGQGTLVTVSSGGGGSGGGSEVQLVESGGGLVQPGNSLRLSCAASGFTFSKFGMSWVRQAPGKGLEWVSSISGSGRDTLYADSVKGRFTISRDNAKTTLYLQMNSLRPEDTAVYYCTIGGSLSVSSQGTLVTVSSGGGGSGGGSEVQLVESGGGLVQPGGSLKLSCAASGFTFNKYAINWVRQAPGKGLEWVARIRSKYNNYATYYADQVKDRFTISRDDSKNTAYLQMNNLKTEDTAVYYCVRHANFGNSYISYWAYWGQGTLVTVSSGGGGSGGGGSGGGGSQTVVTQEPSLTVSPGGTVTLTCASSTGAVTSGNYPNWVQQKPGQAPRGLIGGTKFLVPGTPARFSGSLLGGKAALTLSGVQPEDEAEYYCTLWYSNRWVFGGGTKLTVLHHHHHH
T8 sequence (chain, as listed by the source): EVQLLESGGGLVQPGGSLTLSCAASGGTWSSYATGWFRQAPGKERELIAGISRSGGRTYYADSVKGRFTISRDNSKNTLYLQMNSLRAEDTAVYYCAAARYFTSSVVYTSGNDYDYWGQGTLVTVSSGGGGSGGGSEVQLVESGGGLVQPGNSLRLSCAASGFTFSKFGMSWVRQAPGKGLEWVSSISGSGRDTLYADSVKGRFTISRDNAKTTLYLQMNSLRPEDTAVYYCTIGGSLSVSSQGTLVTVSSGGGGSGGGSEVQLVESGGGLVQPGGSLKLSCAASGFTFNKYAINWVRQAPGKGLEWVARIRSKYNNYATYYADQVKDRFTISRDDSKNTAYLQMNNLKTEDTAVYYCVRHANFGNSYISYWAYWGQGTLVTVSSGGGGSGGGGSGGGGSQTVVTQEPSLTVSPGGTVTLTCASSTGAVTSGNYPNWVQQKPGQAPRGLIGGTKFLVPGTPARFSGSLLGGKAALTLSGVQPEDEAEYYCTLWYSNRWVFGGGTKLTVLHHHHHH
T5 sequence (chain, as listed by the source): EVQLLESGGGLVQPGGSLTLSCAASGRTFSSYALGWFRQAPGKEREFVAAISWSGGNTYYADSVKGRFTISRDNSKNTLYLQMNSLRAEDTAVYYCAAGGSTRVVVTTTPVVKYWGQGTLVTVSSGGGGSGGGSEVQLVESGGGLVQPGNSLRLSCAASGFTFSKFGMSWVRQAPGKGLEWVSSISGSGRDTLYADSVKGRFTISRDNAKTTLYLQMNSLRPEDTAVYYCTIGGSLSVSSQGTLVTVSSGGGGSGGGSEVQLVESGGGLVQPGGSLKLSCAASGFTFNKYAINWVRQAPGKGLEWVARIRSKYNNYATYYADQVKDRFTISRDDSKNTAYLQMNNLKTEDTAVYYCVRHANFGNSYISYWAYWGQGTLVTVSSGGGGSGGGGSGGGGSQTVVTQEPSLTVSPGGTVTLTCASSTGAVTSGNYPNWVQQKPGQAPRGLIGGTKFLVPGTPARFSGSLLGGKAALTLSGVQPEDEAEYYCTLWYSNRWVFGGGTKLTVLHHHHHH

B1: FLL188 (VHH)
VHH: QVQLQESGGGLVQAGGSLGLSCAVSGRTFSGFGTGWFRQPPEKEREFVAAISWDGGRTHYADSVKGRFTISRDNAKNTVFLQMNSLKPEDTAVYYCAAQVARAYDSRWYSGGDYWGQGTQVTVSS
notes: llama anti-FLT3 variable domain; E. coli periplasmic extract
B1: the “ELISA FLT3 (absorbance)” value with human FLT3 protein [1] turned out to be 4 absorbance. This molecule also showed an FLT3/control with human FLT3 protein [2] of 51 ratio.

B2: FLL553 (VHH)
VHH: QVQLQESGGGLVQAGGSLRLSCAVSGRTFSGFGTGWFRQAPGKEREFVAAISWSGGTTHYADSVKGRFTISRDNAKNTVNLVYLQMNSLRPEDTAVYYCAGQVARAYDSNWYSRGDYWGQGTQVTVSS
notes: as for B1
For the molecule B2, the “ELISA FLT3 (absorbance)” value with human FLT3 protein [1] was determined as 3.7 absorbance. Moreover, the FLT3/control in the assay with human FLT3 protein [2] was 37 ratio.

B3: FLL75 (VHH)
VHH: B2 VHH with S88D
notes: as for B1
For B3, in the assay with human FLT3 protein [1], the “ELISA FLT3 (absorbance)” value stood at 4 absorbance. Also, the FLT3/control with human FLT3 protein [2] was determined as 19 ratio.

B4: FLL40 (VHH)
VHH: B2 VHH with N80S, R90K, E92D, N110S, W118L
notes: as for B1
Turning to B4, the “ELISA FLT3 (absorbance)” value in the assay with human FLT3 protein [1] stood at 4 absorbance. The molecule also gave an FLT3/control with human FLT3 protein [2] of 21 ratio.

B5: FLL53 (VHH)
VHH: B2 VHH with G16D, I51V, W53Q, V79E, N80T, R90K, N110S, S113A
notes: as for B1
Consider B5, for which the “ELISA FLT3 (absorbance)” value with human FLT3 protein [1] turned out to be 3.9 absorbance. Besides, the FLT3/control in the assay with human FLT3 protein [2] was found to be 17 ratio.

B6: biotinylated cynomolgus FLT3 protein (receptor, cynomolgus monkey)
chain: NQDLPVIKCVLINHKNNDSSVGKSSSYPMVSESPEDLGCALRPQSAGTVYEAATVEVDVSASITLQVLVDTPGNISCLWVFKHSSLNCQPHFDVQNRGVVSMVILKMTETQAGEYLLFIQSEATNYTIVFTVSIRNTLLFTLRRPYFRKMENQDALVCISESVPEPIVEWVLCDSQGESCKEESPAVVKKEEKVLHELFGTDIRCCARNELGRECTRLFTIDLNQTPQTTLPQLFLKVGEPLWIRCKAVHVNHGFGLTWELENKALEEGSYFEMSTYSTNRTMIRILFAFVSSVARNDTGYYTCSSSKHPSQSALVTIVEKGFINATNSSEDYEIDQYEEFCFSVRFKAYPQIRCTWTFSRKAFPCEQKALDDGYSVSKFCNHKHQPGEYIFHAENGDAQFTKMFTLNIRRKPQVLAEASASQASCSSDGYPLPSWTWKKCSDKSPNCTEDIPEGVWNRKANRKVFGQWVSSSTLNMSEAMKGFLVKCCAYNSLGTSCETILLNSPGPFPFIQDS
modifications: biotinylated (sites not given)
notes: loaded on streptavidin Octet tips; also called Cynomolgus Monkey FLT3
Consider B6, for which the Kd turned out to be 10 nM in assay [3]; 35 nM in assay [4]; 2.7 nM in assay [5]; 19 nM in [6]; 214 nM in [7]; 161 nM in [8]. The dissociation constant (Kd) worked out at 11.8 nM in assay [9]; 7.8 nM in [10]; 18 nM in assay [11]; 34 nM in assay [12]; 26 nM in assay [13]; 2 nM in [14]. For the same molecule, the Kd was found to be 24 nM in [15] and 102 nM in [16].

B7: FLL84 (VHH)
VHH: QVQLQESGGGLVQAGGSLMVSCAASGGTFSSYATGWFRQVPGKEREFIAGISRSGGRTYYAESVKGRFTISRDNAKNTVYLQMNTLKPDDTAVYYCAAARYFTTSVVYTSGDDYDYWGQGTQVTVSS
notes: as for B1
As for B7, the “ELISA FLT3 (absorbance)” value with human FLT3 protein [1] worked out at 1.3 absorbance. For the same molecule, in the assay with human FLT3 protein [2], the FLT3/control came to 4 ratio.

B8: FLL67 (VHH)
VHH: B7 VHH with A14L, G16D
notes: as for B1
Turning to B8, the “ELISA FLT3 (absorbance)” value with human FLT3 protein [1] came out at 2.7 absorbance. This molecule also yielded an FLT3/control in the assay with human FLT3 protein [2] of 12 ratio.

B9: FLL92 (VHH)
VHH: B7 VHH with F29W, F47L, P88S, T104S, D112N
notes: as for B1
For B9, the “ELISA FLT3 (absorbance)” value in the assay with human FLT3 protein [1] was determined as 4 absorbance. This molecule gave an FLT3/control with human FLT3 protein [2] of 25 ratio.

B10: FLL41 (VHH)
VHH: B7 VHH with A14L, G16D, K43R
notes: as for B1
For B10, the “ELISA FLT3 (absorbance)” value in the assay with human FLT3 protein [1] amounted to 0.8 absorbance. The molecule also had an FLT3/control with human FLT3 protein [2] of 5 ratio.

B11: FLL8 (VHH)
VHH: B7 VHH with A14V, S54N, G55S, T104R, S105D
notes: as for B1
Take B11: in the assay with human FLT3 protein [1], the “ELISA FLT3 (absorbance)” value was 3.3 absorbance. This molecule also had an FLT3/control with human FLT3 protein [2] of 14 ratio.

B12: FLL71 (VHH)
VHH: B7 VHH with A14V, S54N, G55S, T104R, S105D, V106A
notes: as for B1
B12: in the assay with human FLT3 protein [1], the “ELISA FLT3 (absorbance)” value turned out to be 1.9 absorbance. Also, the FLT3/control with human FLT3 protein [2] was 9 ratio.

B13: FLL102 (VHH)
VHH: B7 VHH with F29W, E46K, F47L, T104S, D112N
notes: as for B1
In the case of B13, the “ELISA FLT3 (absorbance)” value in the assay with human FLT3 protein [1] came to 3.7 absorbance. This molecule showed an FLT3/control with human FLT3 protein [2] of 37 ratio.

B14: FLL122 (VHH)
VHH: B7 VHH with F29W, F47L, T104S, D112N
notes: as for B1
For B14, the “ELISA FLT3 (absorbance)” value with human FLT3 protein [1] came out at 4 absorbance. Moreover, the FLT3/control with human FLT3 protein [2] was 26 ratio.

B15: FLL153 (VHH)
VHH: B7 VHH with A14V, I51V, S54N, G55S, A92G, T104R, S105D, V106A
notes: as for B1
In the case of B15, the “ELISA FLT3 (absorbance)” value with human FLT3 protein [1] turned out to be 1.4 absorbance. In the assay with human FLT3 protein [2], this molecule had an FLT3/control of 15 ratio.

B16: FLL134 (VHH)
VHH: QVQLQESGGGLVQPGGSLRLSCAASGGTFSSYATGWFRQVPGKEREFIAGISRNSGRTYAESVKGRFTISRDNAKNTVYLQMNTLRPDDTAVYYCAAARYFTRDAIYTSGDDYDYWGQGTQVTASS
notes: as for B1
In the case of B16, in the assay with human FLT3 protein [1], the “ELISA FLT3 (absorbance)” value turned out to be 1.3 absorbance. The molecule further yielded an FLT3/control with human FLT3 protein [2] of 15 ratio.

B17: cynomolgus serum albumin (other, cynomolgus monkey, UniProt A2V9Z4 25-608, looked up)
chain: DTHKSEVAHRFKDLGEEHFKGLVLVAFSQYLQQCPFEEHVKLVNEVTEFAKTCVADESAENCDKSLHTLFGDKLCTVATLRETYGEMADCCAKQEPERNECFLQHKDDNPNLPPLVRPEVDVMCTAFHDNEATFLKKYLYEVARRHPYFYAPELLFFAARYKAAFAECCQAADKAACLLPKLDELRDEGKASSAKQRLKCASLQKFGDRAFKAWAVARLSQKFPKAEFAEVSKLVTDLTKVHTECCHGDLLECADDRADLAKYMCENQDSISSKLKECCDKPLLEKSHCLAEVENDEMPADLPSLAADYVESKDVCKNYAEAKDVFLGMFLYEYARRHPDYSVMLLLRLAKAYEATLEKCCAAADPHECYAKVFDEFQPLVEEPQNLVKQNCELFEQLGEYKFQNALLVRYTKKVPQVSTPTLVEVSRNLGKVGAKCCKLPEAKRMPCAEDYLSVVLNRLCVLHEKTPVSEKVTKCCTESLVNRRPCFSALELDEAYVPKAFNAETFTFHADMCTLSEKEKQVKKQTALVELVKHKPKATKEQLKGVMDNFAAFVEKCCKADDKEACFAEEGPKFVAASQAALA
For the molecule B17, the equilibrium dissociation constant (Kd) in assay [17] turned out to be 4.4 nM.
